Measurements published in article PMC10076392 (2023).

B1: FtsW-FtsI complex, His-tagged (complex)
chain 1: MRLSLPRLKMPRLPGFSILVWISTALKGWVMGSREKDTDSLIMYDRTLLWLTFGLAAIGFIMVTSASMPIGQRLTNDPFFFAKRDGVYLILAFILAIITLRLPMEFWQRYSATMLLGSIILLMIVLVVGSSVKGASRWIDLGLLRIQPAELTKLSLFCYIANYLVRKGDEVRNNLRGFLKPMGVILVLAVLLLAQPDLGTVVVLFVTTLAMLFLAGAKLWQFIAIIGMGISAVVLLILAEPYRIRRVTAFWNPWEDPFGSGYQLTQSLMAFGRGELWGQGLGNSVQKLEYLPEAHTDFIFAIIGEELGYVGVVLALLMVFFVAFRAMSIGRKALEIDHRFSGFLACSIGIWFSFQALVNVGAAAGMLPTKGLTLPLISYGGSSLLIMSTAIMMLLRIDYETRLEKAQAFVRGSR
chain 2: MKAAAKTQKPKRQEEHANFISWRFALLCGCILLALAFLLGRVAWLQVISPDMLVKEGDMRSLRVQQVSTSRGMITDRSGRPLAVSVPVKAIWADPKEVHDAGGISVGDRWKALANALNIPLDQLSARINANPKGRFIYLARQVNPDMADYIKKLKLPGIHLREESRRYYPSGEVTAHLIGFTNVDSQGIEGVEKSFDKWLTGQPGERIVRKDRYGRVIEDISSTDSQAAHNLALSIDERLQALVYRELNNAVAFNKAESGSAVLVDVNTGEVLAMANSPSYNPNNLSGTPKEAMRNRTITDVFEPGSTVKPMVVMTALQRGVVRENSVLNTIPYRINGHEIKDVARYSELTLTGVLQKSSNVGVSKLALAMPSSALVDTYSRFGLGKATNLGLVGERSGLYPQKQRWSDIERATFSFGYGLMVTPLQLARVYATIGSYGIYRPLSITKVDPPVPGERVFPESIVRTVVHMMESVALPGGGGVKAAIKGYRIAIKTGTAKKVGPDGRYINKYIAYTAGVAPASQPRFALVVVINDPQAGKYYGGAVSAPVFGAIMGGVLRTMNIEPDALTTGDKNEFV
B2: PBP1b (aa58-804) (enzyme)
chain: KPRGKRGWLWLLLKLAIVFAVLIAIYGVYLDQKIRSRIDGKVWQLPAAVYGRMVNLEPDMTISKNEMVKLLEATQYRQVSKMTRPGEFTVQANSIEMIRRPFDFPDSKEGQVRARLTFDGDHLATIVNMENNRQFGFFRLDPRLITMISSPNGEQRLFVPRSGFPDLLVDTLLATEDRHFYEHDGISLYSIGRAVLANLTAGRTVQGASTLTQQLVKNLFLSSERSYWRKANEAYMALIMDARYSKDRILELYMNEVYLGQSGDNEIRGFPLASLYYFGRPVEELSLDQQALLVGMVKGASIYNPWRNPKLALERRNLVLRLLQQQQIIDQELYDMLSARPLGVQPRGGVISPQPAFMQLVRQELQAKLGDKVKDLSGVKIFTTFDSVAQDAAEKAAVEGIPALKKQRKLSDLETAIVVVDRFSGEVRAMVGGSEPQFAGYNRAMQARRSIGSLAKPATYLTALSQPKIYRLNTWIADAPIALRQPNGQVWSPQNDDRRYSESGRVMLVDALTRSMNVPTVNLGMALGLPAVTETWIKLGVPKDQLHPVPAMLLGALNLTPIEVAQAFQTIASGGNRAPLSALRSVIAEDGKVLYQSFPQAERAVPAQAAYLTLWTMQQVVQRGTGRQLGAKYPNLHLAGKTGTTNNNVDTWFAGIDGSTVTITWVGRDNNQPTKLYGASGAMSIYQRYLANQTPTPLNLVPPEDIADMGVDYDGNFVCSGGMRILPVWTSDPQSLCQQSEMQQQPS

Columns and labels:
Test in all cases: BLI
PBP1b (aa58-804) = molecular target: B2
[1] = molecular target: FtsB-FtsL-FtsQ complex, analyte of the BLI assay (E. coli strain K12, UniProt P0A6S5 1-103; P0AEN4 1-121; P06136 1-276, S3N | R4K | V5L)
[2] = molecular target: FtsB-FtsL-FtsQ complex, His-tagged (E. coli strain K12, UniProt P0A6S5 1-103; P0AEN4 1-121; P06136 1-276, S3N | R4K | V5L)

Kd (PBP1b (aa58-804)) [nM]	Kd [1] [nM]	Kd [2] [nM]	Binder
530	180	–	B1
–	–	930	B2
